For assay [1], the target named is T1, sMepS-6×His-C (soluble MepS without its lipoprotein signal peptide, C-terminal His-tag), P0AFV4.
T1 chain: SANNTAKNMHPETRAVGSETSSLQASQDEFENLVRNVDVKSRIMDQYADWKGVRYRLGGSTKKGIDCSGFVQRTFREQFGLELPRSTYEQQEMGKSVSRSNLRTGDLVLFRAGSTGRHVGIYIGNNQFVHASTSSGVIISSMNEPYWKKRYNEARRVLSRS
Put plainly: ITC. Particulars: chain shown with the change.

The target in assay [2] is Prc (full-length, C-terminal His-tag) (E. coli) (UniProt P23865).
Assay [3] deals with sMepS-6×His-C (soluble MepS without its lipoprotein signal peptide, C-terminal His-tag) (E. coli) (UniProt P0AFV4). Put plainly: ITC; iTC200, 20 °C, 20 mM HEPES pH 7.5, 300 mM NaCl, 2 mM 2-mercaptoethanol; 23 µM sMepS or Prc in the cell, 230 µM sNlpI (alone or with equimolar Prc) in the syringe; one binding site model. Background: In ITC the heat of successive injections is recorded.

Assay [4] addresses Prc (full-length, C-terminal His-tag) (E. coli) (UniProt P23865). The description is as above.

Sequence of Prc (full-length, C-terminal His-tag) (E. coli) (P23865 23-682 limits assumed): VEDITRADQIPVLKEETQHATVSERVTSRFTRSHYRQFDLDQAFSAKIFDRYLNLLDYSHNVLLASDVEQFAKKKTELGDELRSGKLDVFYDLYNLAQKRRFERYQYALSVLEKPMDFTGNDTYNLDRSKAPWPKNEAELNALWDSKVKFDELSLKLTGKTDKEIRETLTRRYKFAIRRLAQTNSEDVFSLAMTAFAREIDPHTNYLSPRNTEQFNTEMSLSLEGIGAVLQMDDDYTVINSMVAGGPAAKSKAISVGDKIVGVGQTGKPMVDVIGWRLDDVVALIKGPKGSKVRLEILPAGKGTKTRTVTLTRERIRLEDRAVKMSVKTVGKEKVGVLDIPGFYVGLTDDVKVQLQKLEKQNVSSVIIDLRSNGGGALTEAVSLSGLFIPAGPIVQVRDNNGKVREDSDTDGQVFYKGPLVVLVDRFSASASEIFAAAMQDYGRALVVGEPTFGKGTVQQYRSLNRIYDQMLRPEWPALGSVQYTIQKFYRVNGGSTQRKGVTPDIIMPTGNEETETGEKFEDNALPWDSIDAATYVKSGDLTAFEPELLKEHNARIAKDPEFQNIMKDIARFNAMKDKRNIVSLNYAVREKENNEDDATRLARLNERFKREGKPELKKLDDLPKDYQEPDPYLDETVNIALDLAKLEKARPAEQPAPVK

B1: sNlpI (soluble NlpI without its lipoprotein signal peptide), P0AFB1 A114W (protein)
chain: SNTSWRKSEVLAVPLQPTLQQEVILARMEQILASRALTDDERAQLLYERGVLYDSLGLRALARNDFSQALAIRPDMPEVFNYLGIYLTQAGNFDWAYEAFDSVLELDPTYNYAHLNRGIALYYGGRDKLAQDDLLAFYQDDPNDPFRSLWLYLAEQKLDEKQAKEVLKQHFEKSDKEQWGWNIVEFYLGNISEQTLMERLKADATDNTSLAEHLSETNFYLGKYYLSLGDLDSATALFKLAVANNVHNFVEHRYALLELSLLGQDQDDLAESDQQ
The term Kd denotes a measure of binding affinity in units of concentration. B1 returned a Kd in assay [1] of 1.45 µM.

B2: sNlpI (soluble NlpI without its lipoprotein signal peptide) (natural protein)
chain: SNTSWRKSEVLAVPLQPTLQQEVILARMEQILASRALTDDERAQLLYERGVLYDSLGLRALARNDFSQALAIRPDMPEVFNYLGIYLTQAGNFDAAYEAFDSVLELDPTYNYAHLNRGIALYYGGRDKLAQDDLLAFYQDDPNDPFRSLWLYLAEQKLDEKQAKEVLKQHFEKSDKEQWGWNIVEFYLGNISEQTLMERLKADATDNTSLAEHLSETNFYLGKYYLSLGDLDSATALFKLAVANNVHNFVEHRYALLELSLLGQDQDDLAESDQQ
With B2, in assay [2], the melting temperature (T m) of Prc-sNlpI in thermal shift assay (Prc alone 40.1 °C) was determined as 53.6 °C. In addition, the Kd is 0.75 µM in assay [3] and under 0.01 µM in assay [4].

Values taken from paper PMC5686067.
